The assay deals with PrP-CFP (mouse PrP(23-231) fused to CFP) (mouse) (UniProt P04925). The assay is described as follows: FRET or BRET. (In general: BRET reads energy transfer from a luciferase to a nearby fluorophore.)

On to “PrP-YFP (mouse PrP(23-231) fused to YFP) (from UniProt P04925 23-231) (domain or fragment)”, for which the FRET efficiency was found to be 31%.

The values are drawn from article PMC10531723.
